According to the supplement of paper PMC10567573:

B1: SOAT1 (parent)
chain: KSAAMLAVFAVSAVVHEYALAVCL
B2: FBXO3 (parent)
chain: GGFPIIRDQIFRYVHDPECVATTG

Variants of: B1
Assay: protein stability index of a GFP-peptide fusion (GPS, HEK-293T) (PSI 1-6); higher = more stable
Conditions: c terminus: a fixed tail appended
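Also: lentivirally expressed fusions sorted by FACS into six bins by GFP to DsRed ratio, PSI derived from sequencing read proportions per bin multiplied by bin number.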

Protein stability index of substitutions, site by site:
A13: L 2.81
S12: P 2.41
A21: L 3
A4: D 2.45
V8: F 4.29
F9: A 1.73
A3: N 2.7

Variants of: B2
Assay: as above
Conditions: c terminus: a fixed tail appended

Protein stability index of substitutions, site by site:
R12: W 1.58; Y 1.64; V 1.22; M 1.35; L 1.64; P 2.82; S 2.89; C 1.75; D 3.21; A 2.3; H 2.69; E 3.39; K 2.67; N 3.01; Q 2.79; T 2.21; F 1.92; G 3.12; I 2.63
D8: A 2.14; V 2.54; K 2.39; T 1.24; Q 1.7; I 3.17; E 1.52; R 3.49; S 1.61; Y 3.32; N 1.54; P 1.27
E18: A 2.61; F 1.88; Q 1.28; H 1.99; V 1.7; R 1.69; T 1.98; M 1.79; P 2.1; C 2.04; Y 2.52; L 1.58; S 1.57; G 1.71; N 1.8; K 2.38; I 1.92; W 1.38; D 1.68
A21: S 1.93; N 1.5; V 1.36; E 1.55; C 1.39; M 2.42; Q 2.05; P 1.86; I 1.5; T 1.69; W 1.7; D 1.06; K 1.62; R 1.82; Y 2.49; F 1.64; H 2.77; G 2; L 1.45
I10: A 2.38; R 2.17; E 3.66; K 3.07; N 3.3; Y 2.57; W 1.74; L 2.17; F 2.13; V 2.36; C 2.19; M 2.44; H 3.27; P 2.6; T 2.54; Q 2.75; S 3.22; G 2.04; D 3.6
C19: Y 1.81; G 1.73; R 1.79; E 2.47; L 1.72; M 2.31; S 1.9; F 1.57; K 1.78; A 1.6; H 1.57; W 2.15; T 2.09; Q 1.94; N 1.74; V 2.08; I 1.55; P 1.94; D 2.49
V14: N 2.92; Y 2.9; T 2.5; I 2.57; Q 3.11; L 2.28; D 3.78; W 1.94; S 2.74; C 1.93; K 2.83; H 2.28; M 2.42; A 2.12; R 2.94; G 2.78; F 1.92; E 3.51; P 3.32
D16: H 1.46; S 2.2; K 2.3; T 2.37; I 2.06; E 2.56; R 1.5; G 1.93; P 2.47; W 2.72; C 1.94; A 1.86; M 1.88; N 1.8; Q 2.25; L 1.75; Y 2.26; F 1.4; V 2.05
G24: M 1.33; I 1.5; E 2.22; P 1.82; S 1.81; V 1.69; K 1.96; R 2.22; D 2.22; Y 1.99; W 1.61; C 1.7; L 1.96; F 1.93; N 2.31
